Literature values, collected in paper PMC12720343.

Biological target: SpoIIQ extracytoplasmic fragment (Bacillus subtilis) (UniProt P71044)
Sequence of UniProt P71044 (P71044 43-283): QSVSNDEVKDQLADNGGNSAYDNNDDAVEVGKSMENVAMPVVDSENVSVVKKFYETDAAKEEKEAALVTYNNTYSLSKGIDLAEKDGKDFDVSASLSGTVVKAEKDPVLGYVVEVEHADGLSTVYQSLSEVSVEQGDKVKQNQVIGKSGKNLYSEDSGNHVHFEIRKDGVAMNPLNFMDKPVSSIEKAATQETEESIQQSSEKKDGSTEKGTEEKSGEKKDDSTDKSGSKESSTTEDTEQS

Kd: 1000 nM
Substance: SpoIIIAH extracytoplasmic fragment (from UniProt P49785)
